Common to all, as to settings: protein: recombinant; tags: U-[2H,15N] or ILV methyl labeled; no tag stated; chain copies: 2
The target of data set [1] is T1, p50 RHR homodimer (mouse (murine), UniProt P25799 39-363). Put plainly: NMR (13C methyl HMQC); 1:1; split peaks, at least two bound conformers; NMR: 20 mM Tris pH 6.8, 150 mM NaCl, 2 mM DTT, 300 K; native gel: 20 mM Tris pH 8.0, 10% glycerol, room temperature, 20 min.
The target in data set [2] is T1, p50 RHR homodimer. Put plainly: NMR (13C methyl HMQC); 1:1; heterogeneous bound conformations; NMR: 20 mM Tris pH 6.8, 150 mM NaCl, 2 mM DTT, 300 K; native gel: 20 mM Tris pH 8.0, 10% glycerol, room temperature, 20 min.
For data set [3], the target named is T1, p50 RHR homodimer. The data set is described as follows: NMR (13C methyl HMQC); 1:1; two conformations; NMR: 20 mM Tris pH 6.8, 150 mM NaCl, 2 mM DTT, 300 K; native gel: 20 mM Tris pH 8.0, 10% glycerol, room temperature, 20 min.
Data set [4] deals with T1, p50 RHR homodimer. Put plainly: NMR (13C methyl HMQC, CPMG); 1:1; single bound conformation; NMR: 20 mM Tris pH 6.8, 150 mM NaCl, 2 mM DTT, 300 K; native gel: 20 mM Tris pH 8.0, 10% glycerol, room temperature, 20 min.
Data set [5] concerns the target T1, p50 RHR homodimer. The data set is described as follows: NMR (13C methyl HMQC); 1:1; single bound conformation, shifts differ from MHC H2; NMR: 20 mM Tris pH 6.8, 150 mM NaCl, 2 mM DTT, 300 K; native gel: 20 mM Tris pH 8.0, 10% glycerol, room temperature, 20 min.
Data set [6] deals with T1, p50 RHR homodimer. The data set is described as follows: EMSA (native gel); 20 uM, 1:1; single band; NMR: 20 mM Tris pH 6.8, 150 mM NaCl, 2 mM DTT, 300 K; native gel: 20 mM Tris pH 8.0, 10% glycerol, room temperature, 20 min. For orientation: Mobility shift assays separate free from complexed probe on a gel.

The text below walks through data of PMC9262625, “Structural and dynamic studies of DNA recognition by NF-κB p50 RHR homodimer using methyl NMR spectroscopy”.

T1 sequence (P25799 39-363): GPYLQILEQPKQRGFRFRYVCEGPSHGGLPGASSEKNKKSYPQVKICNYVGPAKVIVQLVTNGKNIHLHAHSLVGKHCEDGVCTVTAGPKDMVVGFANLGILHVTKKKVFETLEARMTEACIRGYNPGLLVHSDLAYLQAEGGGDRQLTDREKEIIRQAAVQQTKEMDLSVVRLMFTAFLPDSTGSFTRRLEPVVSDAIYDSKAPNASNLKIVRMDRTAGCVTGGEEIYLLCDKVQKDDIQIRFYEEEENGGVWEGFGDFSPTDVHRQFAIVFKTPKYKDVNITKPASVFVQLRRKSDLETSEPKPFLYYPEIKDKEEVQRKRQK

B1: κB proto (dsDNA)
DNA 1: GCTGGGAATTCCCAGC
DNA 2: GCTGGGAATTCCCAGC
In the case of B1, the binding result with p50 RHR homodimer [1] is recorded as “binds”.

B2: Ig-κB (dsDNA)
DNA 1: GCTGGGACTTTCCAGC
DNA 2: GCTGGAAAGTCCCAGC
Turning to B2, the binding result in the data set with p50 RHR homodimer [2] is on record as “binds”.

B3: IFN-κB (dsDNA)
DNA 1: GCTGGGAAATTCCAGC
DNA 2: GCTGGAATTTCCCAGC
For B3, in the data set with p50 RHR homodimer [2], the binding result is “binds”.

B4: 4xG-10 (4G-10) (dsDNA)
DNA 1: GCTGGGGATCCCCAGC
DNA 2: GCTGGGGATCCCCAGC
In the case of B4, in the data set with p50 RHR homodimer [3], the binding result was “binds”.

B5: MHC H2 (dsDNA)
DNA 1: GCTGGGGATTCCCCAGC
DNA 2: GCTGGGGAATCCCCAGC
For the molecule B5, in the data set with p50 RHR homodimer [4], the binding result is “binds”.

B6: MHC H2 M1 (dsDNA)
DNA 1: GCTGGGAATTTCCCAGC
DNA 2: GCTGGGAAATTCCCAGC
For the molecule B6, the binding result with p50 RHR homodimer [5] is given as “binds”.

B7: MHC H2 M2 (dsDNA)
DNA 1: GCTGGGGATTTCCCAGC
DNA 2: GCTGGGAAATCCCCAGC
Take B7: the binding result in the data set with p50 RHR homodimer [6] is recorded as “binds”.

B8: H2-κB (dsDNA)
DNA 1: GCTGGGAATCCCCAGC
DNA 2: GCTGGGGATTCCCAGC
With B8, the binding result with p50 RHR homodimer [2] is “binds”.
